How the values were obtained:
[1] = tested on: Plasmodium berghei Merozoite Surface Protein 1, 42 kDa form (PbMSP1-42)
[2] = tested on: Plasmodium berghei Apical Membrane Antigen 1 (PbAMA1)

Question: Which results are given for “Plasmodium berghei subtilisin-like protease SUB2 (PbSUB2), TrimycDuoXpress (TmDX) epitope-tagged, as expressed in WT-TmDX1 and SPA-TmDX1 recombinant parasites”?
Answer: ratio of HSP70-corrected PbMSP1-19 maturation product, SPA-TmDX1 (PbSUB2 over-expressing) versus WT-TmDX1 merozoite extracts, Western blot, 1.3 x 10^6 parasites (fold (ratio of corrected amounts)) [1]: 2.9; ratio of HSP70-corrected PbMSP1-19 maturation product, SPA-TmDX1 (PbSUB2 over-expressing) versus WT-TmDX1 merozoite extracts, Western blot, 6.5 x 10^6 parasites (fold (ratio of corrected amounts)) [1]: 2.5; ratio of HSP70-corrected PbMSP1-19 maturation product, SPA-TmDX1 (PbSUB2 over-expressing) versus WT-TmDX1 merozoite extracts, Western blot, 13 x 10^6 parasites (fold (ratio of corrected amounts)) [1]: 2.1; ratio of HSP70-corrected PbAMA1-CT15 maturation product, SPA-TmDX1 (PbSUB2 over-expressing) versus WT-TmDX1 merozoite extracts, Western blot, 6.5 x 10^7 parasites (fold (ratio of corrected amounts)) [2]: 9.7

Reference: patent US20070014817
